The values below come from paper PMC10318465, “A heme pocket aromatic quadrupole modulates gas binding to cytochrome c′-β: Implications for NO sensors” (The Journal of Biological Chemistry, 2023).

Substitutions are numbered along the chain they refer to. Names and notes keep the numbering of the source.

For one data set, the target named is His123 (UniProt position 143, GCFGCHAAQKE). In words: UV-vis. Particulars: 1x MHTCP cocktail buffer (5x stock: 500 mM CAPS, 250 mM Mes, 250 mM Hepes, 250 mM Pipes, 250 mM TAPS), sodium dithionite, excess PROLI NONOate, Ferrous heme-nitrosyl Fe(II)NO complex, 5 uM protein, equilibrium between 5cNO (His 123 dissociated) and 6cNO (His 123 bound).
Data set [1] is described as follows: Literature kinetic parameters of six-coordinate Fe(II)CO complexes of selected heme proteins. It is filed as binding. The settings on record: from literature koff(CO) values of Table 4.
Details of data set [2]: method as in earlier work. The settings on record: 6cCO, ref AxCP-α [9],[56], L16A [9],[10], Mb pig wt and V68T [57], H64V,V68T [25], sGC [17],[58], Ns H-NOX [16], cited from earlier work; for Kd: read-out: Kd(CO).
The conditions of data set [3]: 6cNO; ref AxCP-α [9],[56]; L16A [9],[10]; Mb pig wt and V68T [57]; sGC [17],[58]; Ns H-NOX [16]; cited from earlier work.

The term pKa denotes the negative logarithm of the acid dissociation constant. Read a low pKa as a stronger acid or weaker base. Molecule “Cytochrome c'-beta (McCP-beta) (Methylococcus capsulatus (Bath))” displayed a pKa in the data set with His123 of 7.17 ± 0.03.

B1: V68T: V68T variant of pig myoglobin (Mb) (protein, UniProt P02189 2-154, looked up, variant V68T)
Myoglobin: GLSDGEWQLVLNVWGKVEADVAGHGQEVLIRLFKGHPETLEKFDKFKHLKSEDEMKASEDLKKHGNTTLTALGGILKKKGHHEAELTPLAQSHATKHKIPVKYLEFISEAIIQVLQSKHPGDFGADAQGAMSKALELFRNDMAAKYKELGFQG
By Kd is commonly meant a measure of binding affinity in units of concentration. For the molecule B1, in data set [1], the “increase of koff(CO) relative to wt Mb” value is listed as roughly 4 fold. In addition, in data set [2], the “koff(CO)” value is 0.079 s⁻¹, the “kon(CO)” value is 610000 M⁻¹ s⁻¹ and the Kd was 130 nM. In data set [3], the “kon(NO)” value was 4.9e+06 M⁻¹ s⁻¹.

B2: Mb pig (wt): wild-type pig myoglobin (protein, UniProt P02189 2-154, looked up)
Myoglobin: B1 Myoglobin with T68V
Take B2: in data set [2], the “koff(CO)” value was 0.019 s⁻¹, the “kon(CO)” value is 780000 M⁻¹ s⁻¹ and the dissociation constant (Kd) is 24 nM. Further, the “kon(NO)” value in data set [3] is 1.7e+07 M⁻¹ s⁻¹.

B3: H64V, V68T: H64V/V68T Mb double variant (protein, UniProt P02189 2-154, looked up, variant H64V V68T)
Myoglobin: B1 Myoglobin with H64V
Regarding B3, the “increase of koff(CO) relative to wt Mb” value in data set [1] was roughly 3 fold. In addition, in data set [2], the “koff(CO)” value is 0.063 s⁻¹, the “kon(CO)” value was 2.7e+07 M⁻¹ s⁻¹ and the equilibrium dissociation constant (Kd) was 2.3 nM.
